The record followed here is patent US20260167721A1 (ABLEXIS, published 2026).

Assay [1] deals with T1, recombinant human CD3 epsilon/delta heterodimer (human, UniProt P07766 23-126; P04234 22-105).
T1 construct: Recombinant protein in solution (200-50 nM) in the Octet assay; also called hCD3 E/D; human CD3E/D
The experiment in a line: Octet BLI, mAb on FAB2G sensor, hCD3 E/D 200-50 nM; R^2 0.95.
Protocol: (§1) Samples were evaluated by flow cytometry analysis against Jurkat and human Pan-T cells (FIG. 1B) as well as by Octet against recombinant human CD3 proteins to evaluate apparent affinities and binding off-rates (Table 6, infra).

For assay [2], the target named is T2, recombinant human CD3 epsilon/gamma heterodimer (human, UniProt P07766 23-126; P09693 23-116).
T2 construct: Recombinant protein in solution (200-50 nM) in the Octet assay; also called hCD3 E/G
T2 sequence (P07766 23-126, chain 1 of 2): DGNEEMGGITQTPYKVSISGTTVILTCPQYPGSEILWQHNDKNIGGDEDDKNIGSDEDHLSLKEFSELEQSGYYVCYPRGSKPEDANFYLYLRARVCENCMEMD
T2 sequence (P09693 23-116, chain 2 of 2): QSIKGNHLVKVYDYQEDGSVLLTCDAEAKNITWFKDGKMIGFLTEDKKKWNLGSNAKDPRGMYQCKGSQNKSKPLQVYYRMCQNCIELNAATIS
The assay is described as follows: Octet BLI, mAb on FAB2G sensor, hCD3 E/G 200-50 nM; R^2 0.96. Background: Biolayer interferometry detects binding as a change in optical thickness at a sensor tip.

Assay [3] has as its target T1, recombinant human CD3 epsilon/delta …. The assay is described as follows: Octet BLI, mAb on FAB2G sensor, hCD3 E/D 200-50 nM; R^2 0.94.
Protocol: as §1
In assay [4] the target is T2, recombinant human CD3 epsilon/gamma …. The experiment in a line: Octet BLI, mAb on FAB2G sensor, hCD3 E/G 200-50 nM; R^2 0.92.
Protocol: as §1
The target in assay [5] is T1, recombinant human CD3 epsilon/delta …. The experiment in a line: Octet BLI, mAb on FAB2G sensor, hCD3 E/D 200-50 nM; R^2 0.60.
Protocol: as §1
For assay [6], the target named is T2, recombinant human CD3 epsilon/gamma …. The experiment in a line: Octet BLI, mAb on FAB2G sensor, hCD3 E/G 200-50 nM; R^2 0.49.
Protocol: as §1
In assay [7] the target is T1, recombinant human CD3 epsilon/delta …. The assay is described as follows: Octet BLI, mAb on FAB2G sensor, hCD3 E/D 200-50 nM; R^2 0.96.
Protocol: as §1
Assay [8] addresses T2, recombinant human CD3 epsilon/gamma …. The assay is described as follows: Octet BLI, mAb on FAB2G sensor, hCD3 E/G 200-50 nM; R^2 0.85.
Protocol: as §1
Assay [9] has the same target. The assay is described as follows: Octet BLI, mAb on FAB2G sensor, hCD3 E/G 200-50 nM; R^2 0.64.
Protocol: as §1
Assay [10] deals with T1, recombinant human CD3 epsilon/delta …. The experiment in a line: Octet BLI, mAb on FAB2G sensor, hCD3 E/D 200-50 nM; R^2 0.98.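 Note: antibodies purified from hybridoma supernatants, measured by Octet binding to recombinant human CD3 protein.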
Protocol: as §1
In assay [11] the target is T2, recombinant human CD3 epsilon/gamma …. The experiment in a line: Octet BLI, mAb on FAB2G sensor, hCD3 E/G 200-50 nM; R^2 0.79.
Protocol: as §1

T1 sequence (P07766 23-126, stated change not applied, chain 1 of 2): as the sequence (P07766 23-126, chain 1 of 2) above
T1 sequence (P04234 22-105, stated change not applied, chain 2 of 2): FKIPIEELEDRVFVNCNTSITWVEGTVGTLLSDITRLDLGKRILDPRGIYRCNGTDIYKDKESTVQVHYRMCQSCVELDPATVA

B1: ABL-CD3-32 (antibody, V domains shown)
VH: EVQLVESGGGLVKPGGSLRLSCEASGFTFSSYNMNWVRQAPGKGLEWVSSISSSSSYIYYTDSVKGRFTISRDNAKNSLYLQMNSLRAEDTAVYYCARAERGSYAFDFWGQGTMVTVSS
VL: not shown
notes: Chimeric hybridoma mAb: human V, CH1, upper hinge; mouse middle hinge, CH2, CH3
The Kd is a measure of binding affinity in units of concentration. The koff is a measure of how fast the partners let go of each other. A word on the kon: it is the second-order rate constant of association. B1: in [1], the Kd came to 38.9 nM, the koff turned out to be 0.0152 s⁻¹ and the kon is 390000 M⁻¹ s⁻¹. Moreover, in assay [2], the Kd was 31.6 nM, the dissociation rate constant (koff) worked out at 0.00962 s⁻¹ and the on-rate (kon) turned out to be 305000 M⁻¹ s⁻¹.

B2: ABL-CD3-31 (antibody, V domains shown)
VH: EVQLVQSGAEVKKPGESLKISCKGSGYSFTNYWIGWVRQMPGKGLEWMGIIYPADSDTTYSPSFQGQVTISADKSITTAYLQWSSLKASDTAMYYCARHGGSYILDAFDIWGQGTMVTVSS
VL: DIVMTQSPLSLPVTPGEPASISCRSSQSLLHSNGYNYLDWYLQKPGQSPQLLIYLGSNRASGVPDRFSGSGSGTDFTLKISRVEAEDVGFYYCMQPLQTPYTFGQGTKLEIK
notes: as for B1
B2: in [3], the dissociation constant (Kd) was 6.66 nM, the koff was 0.00149 s⁻¹ and the kon is 223000 M⁻¹ s⁻¹. In assay [4], the Kd amounted to 5.64 nM, the koff is 0.00173 s⁻¹ and the kon is 306000 M⁻¹ s⁻¹.

B3: ABL-CD3-18 (antibody, V domains shown)
VH: EVQLVESGEGLVQPGGSLRLSCAASGFTFSSYAMHWVRQAPGKGLEYVSAISSNGGRTYYADSVKGRFTISRDNSKNTLYLQMGSLRAEDMAVYYCARGGSLDYWGQGTLVTVSS
VL: DIVMTQTPLSSPVTPGQPASISCRSSQSLVHSDGNTYLNWLQQRPGQPPRLLIYKISDRFSGVPDRFSGSGAGTDFTLKIGRVEAEDVGVYYCMQSTQFPITFGQGTRLEIK
notes: as for B1
Regarding B3, in assay [5], the equilibrium dissociation constant (Kd) is under 0.001 nM, the koff is under 1e-07 s⁻¹ and the kon worked out at 29100 M⁻¹ s⁻¹. Also, in [6], the dissociation constant Kd was under 0.001 nM, the koff was under 1e-07 s⁻¹ and the on-rate constant (kon) was 27000 M⁻¹ s⁻¹.

B4: ABL-CD3-22 (antibody, V domains shown)
VH: EVQLVESGGGLVQPGGSLRLSCAASGFTFSSYSMNWVRQAPGKGLEWVSYISSSSSTIYYADSVKGRFTISRDNAKNSLYLQMNSLRDEDTAVYYCARDGPVDYGMDVWGQGTTVTVSS
VL: SYELTQPPSVSVSPGQTARITCSGDALPKQYTYWCQQKPGQAPVLVIYKDSERPSGIPERFSGSSSGTTVTLTISGVQAEDEADYYCQSADSSGTYRVFGGGTKLTVL
notes: as for B1
As to B4, in [7], the Kd was found to be 49.2 nM, the Response was found to be 0.08, the koff worked out at 0.00513 s⁻¹ and the on-rate constant (kon) was found to be 104000 M⁻¹ s⁻¹. In [8], the equilibrium dissociation constant (Kd) amounted to 14.4 nM, the koff stood at 0.00639 s⁻¹ and the kon worked out at 444000 M⁻¹ s⁻¹.

B5: ABL-CD3-27 (antibody, V domains shown)
VH: QVQLVQSGAEVKKPGASLKVSCKASGYTFTSYYMHWVRQAPGQGLEWMGIINPSNGNTISAQKFQGRVTMTRDTSTSTVYMEMSSLRSEDTAVYYCVRCWGYYVMDVWGQGTTVTVSS
VL: QTVVTQEPSFSVSPGGTVTLTCGLNSGSVSTSYYPSWYQQTPGQTPRTLIYSTNTRSSGVPDRFSGSILGNKAALTITGAQADDESDYYCVLYMGSGIWVFGGGTKLTVL
notes: as for B1
For B5, in [7], the Kd was determined as 2.31 nM, the Response worked out at 0.39, the koff stood at 0.000528 s⁻¹ and the kon is 228000 M⁻¹ s⁻¹. In assay [9], the equilibrium dissociation constant (Kd) was found to be 3.65 nM, the koff came out at 0.00156 s⁻¹ and the on-rate (kon) was found to be 428000 M⁻¹ s⁻¹.

B6: ABL-CD3-21 (antibody, V domains shown)
VH: EVQLVESGGGLVKPGGSLRLSCAASGFTFSSYSMNWVRQAPGKGLEWVSSISRSSSYIYYADSVKGRFTLSRDNAKNSLYLQMNSLRGEDTAIYYCGRDGKGAIFLDYWGQGTLVTVSS
VL: SYELTQPPSVSVSPGQTARITCSGDALPKKYAYWYQQKSGQAPVLVIYEDSKRPSGIPERFSGSSSGTMATLTISGAQVEDEADYYCYSTHSSGNHRVFGGGTKLTVL
notes: as for B1
Consider B6, for which, in assay [10], the Kd turned out to be 95.3 nM, the Response turned out to be 0.27, the koff stood at 0.036 s⁻¹ and the kon was determined as 378000 M⁻¹ s⁻¹. Also, in [11], the Kd was 130 nM, the koff was 0.0994 s⁻¹ and the kon turned out to be 766000 M⁻¹ s⁻¹.
